Patent publication US20040018558A1 (published 2004)
Where no end group is shown, it is not given here.

T1: human thrombin receptor (PAR1) (human, UniProt P25116 42-425)
T1 sequence (looked up): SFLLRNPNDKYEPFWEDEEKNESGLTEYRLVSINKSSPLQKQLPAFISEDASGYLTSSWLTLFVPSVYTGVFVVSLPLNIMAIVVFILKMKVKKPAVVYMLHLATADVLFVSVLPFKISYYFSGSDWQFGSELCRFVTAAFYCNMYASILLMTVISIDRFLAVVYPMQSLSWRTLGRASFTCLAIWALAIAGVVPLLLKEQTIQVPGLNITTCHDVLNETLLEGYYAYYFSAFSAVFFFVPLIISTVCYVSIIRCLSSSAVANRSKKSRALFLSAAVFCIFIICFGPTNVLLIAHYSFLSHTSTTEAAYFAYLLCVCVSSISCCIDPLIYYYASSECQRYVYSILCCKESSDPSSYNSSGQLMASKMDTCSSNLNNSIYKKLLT

B1: L17 ILQNLKDCGLF (peptide, not shown: small tags and cut ends)
chain: ILQNLKDCGLF
modifications: also: fused to fusion carrier of the lysate via linker, not given here
B2: Clone No. 7 (Table X) IGEQIEDCGPF (peptide, not shown: small tags and cut ends)
chain: IGEQIEDCGPF
modifications: also: fused to LacI carrier via linker, letters not given here
B3: Gα13 C-terminal minigene peptide (pcDNA-Gα13) (peptide)
peptide: MGLHDNLKQLMLQ
B4: Peptide 8 (LLENLRDCGMF) (peptide)
peptide: LLENLRDCGMF
notes: also called HAP
B5: L10 IHDRLKDCGLF (peptide, not shown: small tags and cut ends)
chain: IHDRLKDCGLF
modifications: also: fused to fusion carrier of the lysate via linker, not given here
notes: first of two rows labelled L10
B6: Gαi C-terminal minigene peptide (pcDNA-Gαi) (peptide)
peptide: MGIKNNLKDCGLF
B7: Gα12 C-terminal minigene peptide (pcDNA-Gα12) (peptide)
peptide: MGLQENLKDIMLQ
B8: Clone No. 2 (Table X) IREKWKDLALF (peptide, not shown: small tags and cut ends)
chain: IREKWKDLALF
modifications: also: fused to LacI carrier via linker, letters not given here
B9: Clone No. 41 (Table X) IRGTLKGWGLF (peptide, not shown: small tags and cut ends)
chain: IRGTLKGWGLF
modifications: also: fused to LacI carrier via linker, letters not given here
B10: L8 IVKNLEDCGLF (peptide, not shown: small tags and cut ends)
chain: IVKNLEDCGLF
modifications: also: fused to lysate carrier and linker, not given here
B11: Clone No. 3 (Table X) VRDNLKNCFLF (peptide, not shown: small tags and cut ends)
chain: VRDNLKNCFLF
modifications: also: fused to LacI carrier via linker, letters not given here
B12: L15 VRDILKDCGLF (peptide, not shown: small tags and cut ends)
chain: VRDILKDCGLF
modifications: also: fused to fusion carrier of the lysate via linker, not given here
B13: Clone No. 26 (Table X) IRENFKYLGLW (peptide, not shown: small tags and cut ends)
chain: IRENFKYLGLW
modifications: also: fused to LacI carrier via linker, letters not given here
B14: Clone No. 13 (Table IX) IRGSLKDCGLF (peptide, not shown: small tags and cut ends)
chain: IRGSLKDCGLF
modifications: also: fused to LacI carrier via linker, letters not given here
notes: also called L20
B15: Clone No. 3 (Table XVIII) ILENLKDCGLL (peptide, not shown: small tags and cut ends)
chain: ILENLKDCGLL
modifications: also: fused to LacI carrier via linker, letters not given here
B16: L13 ISKNLRDCGLL (peptide, not shown: small tags and cut ends)
chain: ISKNLRDCGLL
modifications: also: fused to fusion carrier of the lysate via linker, not given here
B17: L14 LRENLKDCGLL (peptide, not shown: small tags and cut ends)
chain: LRENLKDCGLL
modifications: also: fused to fusion carrier of the lysate via linker, not given here
B18: GαiR control minigene peptide (Gαi1/2 carboxyl terminus in random order) (peptide)
peptide: MGNGIKCLFNDKL
B19: Clone No. 33/37 (Table X) SLEILKDWGLF (peptide, not shown: small tags and cut ends)
chain: SLEILKDWGLF
modifications: also: fused to LacI carrier via linker, letters not given here
B20: L38 LLDILKDCGLF (peptide, not shown: small tags and cut ends)
chain: LLDILKDCGLF
modifications: also: fused to lysate carrier and linker, not given here
B21: L34 ILESLNECGLF (peptide, not shown: small tags and cut ends)
chain: ILESLNECGLF
modifications: also: fused to fusion carrier of the lysate via linker, not given here
B22: Clone No. 21 (Table X) IRENLKDLGLV (peptide, not shown: small tags and cut ends)
chain: IRENLKDLGLV
modifications: also: fused to LacI carrier via linker, letters not given here
B23: Gαq C-terminal minigene peptide (pcDNA-Gαq) (peptide)
peptide: MGLQLNLKEYNAV
B24: Clone No. 17 (Table X) IRNNLKRYGMF (peptide, not shown: small tags and cut ends)
chain: IRNNLKRYGMF
modifications: also: fused to LacI carrier via linker, letters not given here

Legend:
[1] = molecular target: T2, rhodopsin (activation state not stated) (bovine, UniProt P02699 1-348); assay: ELISA of lysates, OD450 with receptor minus without receptor
T2 construct: whole, on cells; same protein as m1; also called EDTA-washed rhodopsin
Method: The methods of Example 7 repeated using rhodopsin screening with a Gt library. To identify the rank order of binding, the lysates were analyzed using ELISA methods in which the secondary antibody was conjugated to HRP. Following addition of the substrate, the microplate was read using a spectrophotometer. The binding is the OD₄₅₀ for wells with receptor—OD₄₅₀ for wells in which no receptor (control wells with empty lipid vesicles).

[2] = molecular target: T3, dark-adapted rhodopsin (bovine rod outer segment membranes) (bovine, UniProt P02699 1-348, retinylidene chromophore bound to Lys-296); assay: LacI display panning, dark-adapted ROS membranes
T3 construct: whole, on cells; also called dark-adapted bovine rhodopsin

[3] = molecular target: T1, human thrombin receptor (PAR1); assay: cell-based or functional assay
[4] = molecular target: T4, light-activated rhodopsin (bovine rod outer segment membranes) (bovine, UniProt P02699 1-348, retinylidene chromophore bound to Lys-296); assay: not detailed in the sentence
T4 construct: whole, on cells; native receptor in membrane fragments immobilised on wells, not intact cells; also called metarhodopsin II; MII

[5] = molecular target: T4, light-activated rhodopsin (bovine rod …); assay: LacI display panning, light-activated ROS membranes, peptide 8 added in rounds 3 and 4
Method: The panning process is illustrated in FIG. 1. For screening of the library by “panning,” rhodopsin receptors prepared according to Example 5 were immobilized directly on Immulon 4 (Dynatech) microtiter wells (0.1-1 μg of protein per well) in cold 35 mM HEPES, pH 7.5, containing 0.1 mM EDTA, 50 mM KCl and 1 mM dithiothreitol (HEK/DTT). After shaking for one hour at 4° C., unbound membrane fragments were washed away with HEK/DTT. The wells were blocked with 100 μl 2% BSA in HEKL (35 mM HEPES; 0.1 mM EDTA; 50 mM KCl; 0.2 M α-lactose; pH 7.5, with 1 mM DTT). For rounds 1 and 2, BSA was used for blocking; in later rounds 1% nonfat dry milk was used. For the first round of panning, about 24 wells of a 96-well plate were used. In subsequent rounds, 8 wells with receptor and 8 wells without receptor were prepared.
To identify peptides having even higher affinity to light-activated rhodopsin than those identified by the panning procedure described in Example 7, a high affinity peptide was included in the library incubations in rounds three and four. […] Screening of the Gαt library was performed as in Example 7, except that 10 μL 100 μM ([…]) peptide 8 was included in the wells in rounds three and four. […] Residues L344, C347 and G348 remained stable whether peptide 8 was included in the screen or not.

T3 sequence (P02699 whole entry): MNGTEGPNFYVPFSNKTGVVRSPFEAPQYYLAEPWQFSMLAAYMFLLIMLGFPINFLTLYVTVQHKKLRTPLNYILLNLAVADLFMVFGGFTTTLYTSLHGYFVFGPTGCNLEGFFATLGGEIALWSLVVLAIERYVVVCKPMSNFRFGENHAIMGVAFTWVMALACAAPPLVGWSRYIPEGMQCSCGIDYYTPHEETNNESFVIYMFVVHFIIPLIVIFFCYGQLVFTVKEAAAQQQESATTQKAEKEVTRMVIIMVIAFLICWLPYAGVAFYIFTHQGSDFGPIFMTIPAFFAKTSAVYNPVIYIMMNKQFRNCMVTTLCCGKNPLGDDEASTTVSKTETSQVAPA
T2 sequence (P02699 whole entry): as above
T4 sequence (P02699 whole entry, the tested form may be a part): as the sequence (P02699 whole entry) above

Row | Binder | ELISA [1] | binding result [2] | further results
1 | B1 | 0.6 OD450 |  | 
2 | B2 |  | binds | 
3 | B3 |  |  | decrease in thrombin-mediated HA-MAPK activity against pcDNA [3]: 77%
4 | B4 |  |  | fold binding against the native sequence [4]: 1000 fold
5 | B5 | 0.506 OD450 |  | 
6 | B6 |  |  | decrease in thrombin-mediated HA-MAPK activity against pcDNA [3]: 59%
7 | B7 |  |  | decrease in thrombin-mediated HA-MAPK activity against pcDNA [3]: 50%
8 | B8 |  | binds | 
9 | B9 |  | binds | 
10 | B10 | 0.257 OD450 |  | 
11 | B11 |  | binds | 
12 | B12 | 0.621 OD450 |  | 
13 | B13 |  | binds | 
14 | B14 | 0.423 OD450 |  | 
15 | B15 |  |  | binding result [5]: binds
16 | B16 | 0.187 OD450 |  | 
17 | B17 | 0.833 OD450 |  | 
18 | B18 |  |  | thrombin mediated increase of HA-MAPK activity [3]: 4.46 fold
19 | B19 |  | binds | 
20 | B20 | 0.823 OD450 |  | 
21 | B21 | 0.603 OD450 |  | 
22 | B22 |  | binds | 
23 | B23 |  |  | decrease in thrombin-mediated HA-MAPK activity against pcDNA [3]: 57%
24 | B24 |  | binds | 
